# ± gives the uncertainty stated by the source.
# Test: self-splicing fitness, log relative to wild type (ln ratio); higher = more splicing; Tetrahymena group I intron in knt gene, E. coli kanamycin selection, DiMSum; sequences stand for … in CUCUCU…GGAGGGAAAAGUUAUCAGGCAUGCACCUGGUAGCUAGUCUUUAAACCAAUAGAUUGCAUCGGUUUAAAAGGCAAGACCGUCAAAUUGCGGGAAAGGGGUCAACAGCCGUUCAGUACCAAGUCUCAGGGGAAACUUUGAGAUGGCCUUGCAAAGGGUAUGGUAAUAAGCUGACGGACAUGGUCCUAACCACGCAGCCAAGUCCUAAGUCAACAGAUCUUCUGUUGAUAUGGAUGCAGUUCACAGACUAAAUGUCGGUCGGGGAAGAUGUAUUCUUCUCAUAAGAUAUAGUCGGACCUCUCCUUAAUGGGAGCUAGCGGAUGAAGUGAUGCAACACUGGAGCCGCUGGGAACUAAUUUGUAUGCGAAAGUAUAUUGAUUAGUUUUGGAGUACUCGUGGUCG
# Outline: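 Six replicate transformations of E. coli BL21(DE3) with a pET-22b(+) library were grown overnight at 37°C or 30°C. The library randomised all eight P1ex-region intron nucleotides, the intron lying in the knt kanamycin-resistance gene, and plates were LB agar with or without 25 μg/mL kanamycin plus 100 μg/mL carbenicillin, 50 μM IPTG and 0.2% rhamnose. Pooled colonies were amplicon-sequenced on an Illumina HiSeq 2500, and fitness is the DiMSum error-weighted combination of wild-type-normalised replicate fold changes, kanamycin versus none.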
Sequence,self-splicing fitness (ln) (30 °C),self-splicing fitness (ln) (37 °C)
CUACAGCAAUAUUACGGCGU,-3.49 ± 0.13,-2.94 ± 0.19
GUCCAGCAAUAUUACGAUUU,-0.323 ± 0.064,0.653 ± 0.067
AUCGAGCAAUAUUACGUCGA,-2.83 ± 0.19,-2.03 ± 0.19
UAGCAGCAAUAUUACGCCUC,-3.28 ± 0.16,-1.11 ± 0.12
CAGCAGCAAUAUUACGUCAU,-4.22 ± 0.33,-2.77 ± 0.23
CCUCAGCAAUAUUACGUCUU,-3.91 ± 0.27,-2.55 ± 0.26
UUUCAGCAAUAUUACGGUUU,-0.595 ± 0.073,-0.244 ± 0.092
ACUAAGCAAUAUUACGCACA,-1.23 ± 0.11,0.0989 ± 0.1
AUAAAGCAAUAUUACGUCGG,-1.28 ± 0.075,-0.774 ± 0.089
CUAGAGCAAUAUUACGAGAC,-2.63 ± 0.29,-0.86 ± 0.3
GUCUAGCAAUAUUACGUGAU,-1.04 ± 0.09,-0.766 ± 0.1
CACCAGCAAUAUUACGGCGA,-1.62 ± 0.061,-1.23 ± 0.063
GCGCAGCAAUAUUACGGACA,-1.45 ± 0.085,-0.514 ± 0.089
CGAGAGCAAUAUUACGUGUU,-3.83 ± 0.25,-3.71 ± 0.46
UUGUAGCAAUAUUACGCUCC,-2.12 ± 0.43,–
GGUCAGCAAUAUUACGAUUU,0.377 ± 0.062,0.21 ± 0.088
GCACAGCAAUAUUACGUUGU,-3.71 ± 0.12,-2.74 ± 0.12
AGCGAGCAAUAUUACGUUGG,-2.04 ± 0.12,-3.5 ± 0.46
CUAAAGCAAUAUUACGUUAA,-3.6 ± 0.11,-2.53 ± 0.15
ACUCAGCAAUAUUACGAGAC,-2.7 ± 0.24,-1.87 ± 0.17
GCACAGCAAUAUUACGCAGC,–,-1.85 ± 0.21
AGAUAGCAAUAUUACGCUUA,-0.901 ± 0.15,-1.08 ± 0.13
UUGGAGCAAUAUUACGCAGG,-2.96 ± 0.28,-1.99 ± 0.33
AGUAAGCAAUAUUACGUAGA,-3.23 ± 0.19,-1.78 ± 0.16
ACUGAGCAAUAUUACGCCCU,-1.87 ± 0.33,-1.05 ± 0.44
CAAUAGCAAUAUUACGCGAU,-3.99 ± 0.23,-2.92 ± 0.29
CUCUAGCAAUAUUACGCCCG,–,-0.832 ± 0.42

Sequence,self-splicing fitness (ln) (30 °C),self-splicing fitness (ln) (37 °C)
AAUUAGCAAUAUUACGGCGC,-0.632 ± 0.13,-0.211 ± 0.13
CUUCAGCAAUAUUACGCGUC,-2.6 ± 0.23,-0.821 ± 0.14
GACCAGCAAUAUUACGAGAC,-0.715 ± 0.15,-1.49 ± 0.18
GAAUAGCAAUAUUACGAGAG,-2.92 ± 0.2,-3.05 ± 0.28
CGUUAGCAAUAUUACGCCUC,-3.03 ± 0.49,-2.48 ± 0.32
AAUUAGCAAUAUUACGCACC,-0.701 ± 0.15,0.362 ± 0.17
CAGUAGCAAUAUUACGCUAC,-4.2 ± 0.3,-2.7 ± 0.23
GCUGAGCAAUAUUACGAAUU,-2.46 ± 0.22,-1.36 ± 0.19
UAACAGCAAUAUUACGAGAU,-4.15 ± 0.33,-2.9 ± 0.2
UUAUAGCAAUAUUACGACUG,-1.05 ± 0.14,-0.662 ± 0.15
ACCGAGCAAUAUUACGAAAC,–,-2.95 ± 0.37
AAUAAGCAAUAUUACGGCCU,-0.0966 ± 0.09,-0.0762 ± 0.13
CUUCAGCAAUAUUACGACUU,-4.07 ± 0.29,-2.34 ± 0.21
AGCCAGCAAUAUUACGUUUC,-3.43 ± 0.18,–
AGAAAGCAAUAUUACGUGGA,-2.47 ± 0.12,-2.28 ± 0.13
UUGUAGCAAUAUUACGAUGA,-0.47 ± 0.13,0.0216 ± 0.12
CUUUAGCAAUAUUACGUACU,-2.22 ± 0.23,-2.82 ± 0.34
GAACAGCAAUAUUACGUUAC,-2.53 ± 0.14,-1.32 ± 0.16
AGUAAGCAAUAUUACGGGCG,-0.68 ± 0.08,0.152 ± 0.12
GGAAAGCAAUAUUACGUGAA,-1.96 ± 0.11,-1.45 ± 0.16
GUCAAGCAAUAUUACGACUG,-4.59 ± 0.27,-4.75 ± 0.45
UGUGAGCAAUAUUACGACCG,-1.22 ± 0.19,-0.38 ± 0.21
CUCGAGCAAUAUUACGGGAC,-3.8 ± 0.24,-2.41 ± 0.27
CUUGAGCAAUAUUACGUAUA,-3.5 ± 0.2,-2.96 ± 0.28
GACCAGCAAUAUUACGCUGU,-3.34 ± 0.15,-1.54 ± 0.095
GAAGAGCAAUAUUACGGCUU,-0.88 ± 0.14,0.407 ± 0.13
UCGUAGCAAUAUUACGUAUG,-2.04 ± 0.14,-1.93 ± 0.2

Sequence,self-splicing fitness (ln) (30 °C),self-splicing fitness (ln) (37 °C)
UUACAGCAAUAUUACGGUCC,-1.95 ± 0.16,-1.03 ± 0.16
ACGAAGCAAUAUUACGUUAG,-3.22 ± 0.12,-2.44 ± 0.16
UGCCAGCAAUAUUACGCCUA,-0.546 ± 0.074,0.0605 ± 0.087
CAUAAGCAAUAUUACGUCUU,-3.71 ± 0.17,-2.41 ± 0.19
GAAGAGCAAUAUUACGGGAC,-3.76 ± 0.25,-2.3 ± 0.24
CGGGAGCAAUAUUACGCCCA,-2.28 ± 0.25,-1.24 ± 0.28
AGCAAGCAAUAUUACGGAUA,-3.3 ± 0.28,-1.77 ± 0.19
UUACAGCAAUAUUACGUAUA,-1.59 ± 0.11,-0.688 ± 0.14
UUGUAGCAAUAUUACGUUCG,-0.926 ± 0.14,-0.622 ± 0.16
GUCAAGCAAUAUUACGUAGA,-2.04 ± 0.1,-1.17 ± 0.12
AUUGAGCAAUAUUACGCCUU,-2.26 ± 0.39,-1.89 ± 0.3
GUUAAGCAAUAUUACGCGUC,-3.23 ± 0.26,-1.96 ± 0.2
CGUGAGCAAUAUUACGGCCG,-1.92 ± 0.43,–
UAGUAGCAAUAUUACGUUUC,-1.16 ± 0.38,-1.5 ± 0.41
UAAUAGCAAUAUUACGUACA,-1.05 ± 0.11,-0.0465 ± 0.13
AAUUAGCAAUAUUACGCUGC,–,-2.79 ± 0.4
CCUAAGCAAUAUUACGAAAU,-2.79 ± 0.18,-2.77 ± 0.29
UUUGAGCAAUAUUACGUAAA,-1.16 ± 0.15,-1.45 ± 0.2
UUUUAGCAAUAUUACGAGCU,-2.57 ± 0.33,-2.22 ± 0.31
GAGCAGCAAUAUUACGGAGC,-3.14 ± 0.13,-0.471 ± 0.11
GUCAAGCAAUAUUACGUUUG,–,-3.38 ± 0.2
CCGAAGCAAUAUUACGUCUG,-0.669 ± 0.06,-0.285 ± 0.068
UUUGAGCAAUAUUACGGCCA,–,-1.17 ± 0.46
AGGCAGCAAUAUUACGGCCG,-1.12 ± 0.13,-0.985 ± 0.17
UUCCAGCAAUAUUACGGGUU,-2.05 ± 0.1,-1.39 ± 0.13

# From the supplement of paper PMC7877785
